Test results taken from the supplement of paper PMC10567573.

B1: TMEM192 (parent)
chain: LWILHLLLECYIQYHHSKIRNRGY

Variants of: B1
Assay: protein stability index of a GFP-peptide fusion (GPS, HEK-293T) (PSI 1-6); higher = more stable
Conditions: c terminus: a fixed tail appended
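Note: lentivirally expressed fusions sorted by FACS into six bins by GFP to DsRed ratio, PSI derived from sequencing read proportions per bin multiplied by bin number.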

Protein stability index of substitutions, site by site:
R20: Q 1.87, S 2.63, H 2.63, W 2.45, T 2.38, G 2.05, K 1.97, M 3.17
Y24: P 2.52, V 2.69, I 2.54, N 2.44, R 2.31, Q 1.57
I3: M 1.35, R 1.74, L 3.4, S 2.32, W 1.61, Y 1.62, G 1.37, D 1.71, T 2.34
L6: R 1.73, N 1.97, H 2.37, P 1.97, K 2, E 2.09, Q 1.99, C 1.67
H16: E 1.91, N 1.3, S 1.05, L 1.85, Q 2.43, R 1.5, V 2.54, D 1.47, C 2.41, F 2.36
Y14: A 3.1, N 1.53, Q 2, W 1.1, I 1.79, L 3.2, D 2.21, S 2.47, H 2.31, F 2.96, C 2.16
L1: A 3.09, K 2.06, E 3.02, Q 3.9
L8: P 2.11
C10: A 2.09, Q 1.95, P 2.22, G 1.18, Y 2.2, S 1.72, D 2.63
W2: K 1.94, Q 2.66, F 3.58, Y 1.25, R 1.63, A 2.2, N 2.28
R22: Y 1.98, D 3.49, P 1.67, W 3.32, Q 3.54, K 1.46, V 1.17, L 2.44
G23: R 1.78, N 1.79, P 3.17, V 3.73, C 2.04, I 2.99, T 2.78, F 1.38
H15: P 2.18, V 2.15, N 2.7, D 1.56
L7: E 2.73, N 2, H 2.78, I 3.46, R 1.89, D 3.52
Q13: D 2.32, M 2.08, H 2.98, Y 1.85, S 1.9, F 2.88, I 2.75
S17: D 2.04, M 1.11, W 2.15, Q 2.37, Y 4.45, A 2.68, H 2.86
E9: D 1.94, M 2.33, Q 2.48, L 1.7, K 3.05, V 3.35, N 1.44, C 3.27
I12: R 2.8, F 3.41, C 1.69, L 2.53, K 2.21, E 1.88, V 2.27, H 1.95
K18: H 4.09, E 2.77, Q 2.67, R 4.17, M 3.16, P 2.32
Y11: N 3.81, F 3.94, D 1.25, K 1.93, E 3.19, A 2.47, G 3.4
L4: I 2.29, R 3.42, C 2.96, V 1.83
N21: P 2.81, V 2.93, A 2.86, R 3.57, G 2.35, W 2.74, L 2.11
H5: G 1.48, T 2.61, P 3.17, E 2.26, I 2.77, C 1.66, D 1.05, K 2.35
I19: W 1.88, P 2.04, R 1.96, S 1.78, H 1.43, V 2.01, Q 1.55, N 1.88
